Measured values taken from publication PMC8891275, “Crosstalk between CRISPR-Cas9 and the human transcriptome”.

Columns and labels:
[1] = target: T1, SpCas9-NLS (CAS9PROT, Sigma-Aldrich) (UniProt Q99ZW2 1-1368); experiment: EMSA; apparent Kd, high nanomolar; 20 nM RNA, Cas9 0-1000 nM; no gRNA; 20 mM Tris-HCl pH 7.4, 150 mM KCl, 5 mM MgCl2, 5 mM EDTA, 1 mM DTT, 0.1% BSA, 5% glycerol, 0.01% Tween 20, 50 ug/mL heparin, 200 U/mL Superase-In; 30 min at room temperature; gel at 4 C; settings: protein: commercial; tags: NLS; label: 5' IRDye 800CW; GU-loop upstream of 5-nt stem
T1 sequence (Q99ZW2 whole entry): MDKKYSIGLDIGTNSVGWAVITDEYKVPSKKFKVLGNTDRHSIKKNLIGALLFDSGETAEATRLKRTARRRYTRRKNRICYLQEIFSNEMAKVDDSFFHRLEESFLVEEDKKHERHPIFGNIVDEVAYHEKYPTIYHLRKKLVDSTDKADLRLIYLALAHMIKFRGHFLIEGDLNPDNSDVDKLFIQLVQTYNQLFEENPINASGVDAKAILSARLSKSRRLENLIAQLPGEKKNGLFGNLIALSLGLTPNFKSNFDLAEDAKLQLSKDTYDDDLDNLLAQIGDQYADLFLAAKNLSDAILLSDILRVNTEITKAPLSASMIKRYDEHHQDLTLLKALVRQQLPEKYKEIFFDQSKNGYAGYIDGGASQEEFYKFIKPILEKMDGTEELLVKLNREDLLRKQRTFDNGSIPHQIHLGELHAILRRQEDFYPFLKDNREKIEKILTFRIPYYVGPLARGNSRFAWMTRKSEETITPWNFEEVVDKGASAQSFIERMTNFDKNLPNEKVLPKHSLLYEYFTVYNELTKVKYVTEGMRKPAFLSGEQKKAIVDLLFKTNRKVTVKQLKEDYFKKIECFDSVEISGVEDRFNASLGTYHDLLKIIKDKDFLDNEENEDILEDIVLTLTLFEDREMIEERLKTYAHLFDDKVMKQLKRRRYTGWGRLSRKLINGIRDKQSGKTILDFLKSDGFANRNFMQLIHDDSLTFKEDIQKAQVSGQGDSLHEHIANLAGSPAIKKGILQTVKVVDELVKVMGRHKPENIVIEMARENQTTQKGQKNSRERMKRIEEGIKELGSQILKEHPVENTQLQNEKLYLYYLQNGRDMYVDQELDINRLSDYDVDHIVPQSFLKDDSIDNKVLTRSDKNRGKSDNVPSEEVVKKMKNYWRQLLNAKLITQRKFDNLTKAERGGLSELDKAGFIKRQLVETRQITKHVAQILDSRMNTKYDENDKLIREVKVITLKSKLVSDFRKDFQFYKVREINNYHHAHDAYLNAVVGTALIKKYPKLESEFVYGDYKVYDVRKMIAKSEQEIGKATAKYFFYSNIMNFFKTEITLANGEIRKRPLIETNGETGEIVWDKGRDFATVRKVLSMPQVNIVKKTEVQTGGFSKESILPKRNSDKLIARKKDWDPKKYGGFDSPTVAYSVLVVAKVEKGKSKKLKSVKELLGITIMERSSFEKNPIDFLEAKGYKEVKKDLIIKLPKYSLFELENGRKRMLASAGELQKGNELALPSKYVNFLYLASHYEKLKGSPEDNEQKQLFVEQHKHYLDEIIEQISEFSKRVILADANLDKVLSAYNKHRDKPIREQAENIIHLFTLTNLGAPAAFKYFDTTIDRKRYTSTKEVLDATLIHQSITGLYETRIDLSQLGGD

[2] = target: T1, SpCas9-NLS (CAS9PROT, Sigma-Aldrich); experiment: competition; does not outcompete 20 nM labeled CDIP1 RNA; Cas9 640 nM; 1:1 to 1:32 to Cas9; 20 mM Tris-HCl pH 7.4, 150 mM KCl, 5 mM MgCl2, 5 mM EDTA, 1 mM DTT, 0.1% BSA, 5% glycerol, 0.01% Tween 20, 50 ug/mL heparin, 200 U/mL Superase-In; 30 min at room temperature; gel at 4 C; settings: protein: commercial; tags: NLS
[3] = target: T1, SpCas9-NLS (CAS9PROT, Sigma-Aldrich); experiment: competition; outcompetes 20 nM labeled CDIP1 RNA; Cas9 640 nM; 1:1 to 1:32 to Cas9; 20 mM Tris-HCl pH 7.4, 150 mM KCl, 5 mM MgCl2, 5 mM EDTA, 1 mM DTT, 0.1% BSA, 5% glycerol, 0.01% Tween 20, 50 ug/mL heparin, 200 U/mL Superase-In; 30 min at room temperature; gel at 4 C; settings: protein: commercial; tags: NLS; guide RNA hairpins

B1: CDIP1 5' UTR RNA (Fig. 2) (structured_RNA)
RNA: UACCCGCCUCCUUGUGACAGAAGUGCGACUGCCAGCUGCCGAGGCGUUCGGUCCUGCUGUUGCGGCCGCUGCCCCAGGGCUGCGGGGACGGUGAGUCGACUGGA
[1]
  Kd: > 100 nM

B2: non-specific (N.S.) RNA, unlabeled (ssRNA)
RNA: CUAUGCGGCAUCAGAGCAGAUUGUACUGAGAGUGCACCAUAUGCGGUGUGAAAUACCGCACAGAUGCGUAAGGAGAAAAUACCGCAUCAGGCGCCAUUCGCCAUUCAGGCUGCGCAACUGUUGG
[2]
  binding result: no binding

B3: Cas9 gRNA (structured_RNA)
RNA: AUUAAUCGGUGGGAGUAUUCGUUUAAGAGCUAUGCUGGAAACAGCAUAGCAAGUUUAAAUAAGGCUAGUCCGUUAUCAACUUGAAAAAGUGGCACCGAGUCGGUGCU
[3]
  binding result: binds
